Values quoted from earlier work in article PMC8100127.

How the values were obtained:
CA 15-3 (MUC1) = CA 15-3 (MUC1) (UniProt P15941); conditions: No purified-protein binding assay in this paper (Kd values cited). TAS on plasma EVs: 0.1 uM Cy5-aptamer, 1x PBS, 2 mM MgCl2, 25 C, 2 h
[1] = biological target: T1, VEGF K321N;internal_change (UniProt P15692); conditions: No purified-protein binding assay in this paper (Kd values cited). TAS on plasma EVs: 0.1 uM Cy5-aptamer, 1x PBS, 2 mM MgCl2, 25 C, 2 h
T1 sequence: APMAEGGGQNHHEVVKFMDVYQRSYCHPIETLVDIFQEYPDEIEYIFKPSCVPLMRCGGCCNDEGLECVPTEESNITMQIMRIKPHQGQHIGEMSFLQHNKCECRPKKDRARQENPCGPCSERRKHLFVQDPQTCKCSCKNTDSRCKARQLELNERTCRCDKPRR

Chain of CA 15-3 (MUC1) (P15941 24-1097): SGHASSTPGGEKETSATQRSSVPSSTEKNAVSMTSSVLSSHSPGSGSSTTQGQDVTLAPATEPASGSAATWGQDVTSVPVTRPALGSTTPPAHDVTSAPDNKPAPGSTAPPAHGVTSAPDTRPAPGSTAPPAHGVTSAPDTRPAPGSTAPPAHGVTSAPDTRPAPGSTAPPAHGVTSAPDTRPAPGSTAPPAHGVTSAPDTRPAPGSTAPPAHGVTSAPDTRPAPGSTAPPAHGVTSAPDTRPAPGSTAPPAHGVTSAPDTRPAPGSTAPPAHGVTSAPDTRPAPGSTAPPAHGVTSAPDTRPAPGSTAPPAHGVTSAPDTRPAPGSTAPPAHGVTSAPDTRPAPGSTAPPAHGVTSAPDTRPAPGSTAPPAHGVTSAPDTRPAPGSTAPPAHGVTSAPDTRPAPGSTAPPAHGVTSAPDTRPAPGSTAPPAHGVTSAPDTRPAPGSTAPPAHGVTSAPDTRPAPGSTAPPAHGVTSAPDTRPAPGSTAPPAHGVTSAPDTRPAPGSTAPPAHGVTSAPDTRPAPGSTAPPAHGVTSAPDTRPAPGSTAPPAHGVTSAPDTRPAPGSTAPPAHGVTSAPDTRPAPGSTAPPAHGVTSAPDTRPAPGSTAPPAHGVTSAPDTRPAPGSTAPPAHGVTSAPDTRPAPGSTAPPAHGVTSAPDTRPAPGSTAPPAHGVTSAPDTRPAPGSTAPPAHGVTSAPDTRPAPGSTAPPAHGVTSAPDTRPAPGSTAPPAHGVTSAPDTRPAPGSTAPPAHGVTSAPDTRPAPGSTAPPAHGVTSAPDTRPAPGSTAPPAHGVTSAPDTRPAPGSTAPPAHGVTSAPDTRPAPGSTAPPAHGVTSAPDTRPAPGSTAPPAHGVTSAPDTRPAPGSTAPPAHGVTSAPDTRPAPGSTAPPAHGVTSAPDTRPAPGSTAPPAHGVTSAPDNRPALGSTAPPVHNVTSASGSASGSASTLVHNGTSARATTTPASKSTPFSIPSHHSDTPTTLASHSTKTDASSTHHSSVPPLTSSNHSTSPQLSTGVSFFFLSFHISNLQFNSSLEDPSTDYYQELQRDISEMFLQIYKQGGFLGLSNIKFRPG

| Sequence | Kd (CA 15-3 (MUC1)) [µM] | Kd [1] [µM] |
| --- | --- | --- |
| GCAGTTGATCCTTTGGATACCCTGG [CA 15-3 aptamer] | 0.000135 | – |
| TTCCCGTCTTCCAGACAAGAGTGCAGGG [VEGF aptamer] | – | 0.4 |
